Experimental data published in paper doi:10.1101/2020.05.12.090472 (bioRxiv, 2020).
No end group written: not given here. *: point of attachment. Biotin = O=C1N[C@H]2[C@H](CS[C@H]2CCCCC(=O)*)N1

Target: Recombinant Cdk5/p25 complex (human Cdk5 and p25 with N-terminal GST-tags) (human, UniProt Q00535 1-292; Q15078 99-307)
Assay: pull-down

binding result: binds
Binder: Biotin-ARAFGIPVRCYS [biotin-conjugated Cdk5i peptide]
